Assay [1] deals with T1, ROR1-Ig (human, UniProt Q01973 30-406).
T1 construct: extracellular domain; also called control ROR1-Ig; not shown: CH2-CH3 constant region domains of human IgG1 (same human IgG domains as ROR2-Ig)
Put plainly: flow cytometry, ROR1-Ig then anti-human IgG-PE, Jurkat cells transfected with the CAR. The method, then:
All cells were assessed after 48 hours by flow cytometry for binding of recombinant human ROR2-Ig protein comprised of the ROR2 extracellular domain and the CH2-CH3 constant region domains of human IgG1. Cells were stained on ice for 20 minutes with 1 μg/ml of recombinant ROR2-Ig (upper panel) or 1 μg/ml of control ROR1-Ig (lower panel). washed, stained for an additional 20 minutes on ice with phycoerythrin (PE)-conjugated anti-human IgG1 antibody, washed and analyzed by flow cytometry. Shaded histograms depict the relative fluorescence intensity (x axis) of viable cells, as determined by light scatter characteristics, stained with either ROR2-Ig or ROR1-Ig compared to cells stained with the anti-human IgG1-PE antibody only (open histograms). […] Conversely, ROR1 CAR transfected cells bind only to ROR1-Ig.

Assay [2] deals with T2, human ROR2 (human, UniProt Q01974 34-403, limits assumed). Put plainly: SPR. Put shortly:
(§1)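 Using surface plasmon resonance, the dissociation constant (Kd, nM) was determined for binding of humanized anti-human ROR2 monoclonal antibodies to human ROR2. These antibodies carry murine complementarity-determining regions in human acceptor frameworks and a human IgG1 constant region. No antigen format, concentrations, temperature, buffer or replicate count is stated.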

Assay [3] has as its target T2, human ROR2. Description: SPR. A digest of the protocol: as §1
The source holds these as a separate data set. A general note: Surface plasmon resonance follows binding to a sensor surface in real time, without labels.

In assay [4] the target is T3, recombinant ROR1 (Homo sapiens (Human), UniProt Q01973 30-406). Description: dot blot of arrayed recombinant proteins (key on the sheet).
T3 sequence (Q01973 30-406 limits assumed): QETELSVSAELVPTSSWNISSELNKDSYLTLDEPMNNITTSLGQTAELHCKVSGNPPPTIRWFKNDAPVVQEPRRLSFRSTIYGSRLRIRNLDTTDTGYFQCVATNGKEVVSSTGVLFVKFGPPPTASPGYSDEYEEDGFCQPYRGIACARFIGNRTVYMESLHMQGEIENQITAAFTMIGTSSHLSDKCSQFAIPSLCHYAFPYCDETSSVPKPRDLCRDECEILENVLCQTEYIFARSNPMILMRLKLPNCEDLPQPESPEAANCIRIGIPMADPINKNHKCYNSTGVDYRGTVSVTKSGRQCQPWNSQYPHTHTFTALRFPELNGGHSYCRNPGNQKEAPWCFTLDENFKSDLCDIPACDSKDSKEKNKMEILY
For assay [5], the target named is T4, recombinant mouse ROR2 (extracellular portion) (mouse, UniProt Q9Z138 34-403).
T4 construct: also called mROR2
T4 sequence (Q9Z138 other isoform, or with tags, fused parts or gaps limits assumed): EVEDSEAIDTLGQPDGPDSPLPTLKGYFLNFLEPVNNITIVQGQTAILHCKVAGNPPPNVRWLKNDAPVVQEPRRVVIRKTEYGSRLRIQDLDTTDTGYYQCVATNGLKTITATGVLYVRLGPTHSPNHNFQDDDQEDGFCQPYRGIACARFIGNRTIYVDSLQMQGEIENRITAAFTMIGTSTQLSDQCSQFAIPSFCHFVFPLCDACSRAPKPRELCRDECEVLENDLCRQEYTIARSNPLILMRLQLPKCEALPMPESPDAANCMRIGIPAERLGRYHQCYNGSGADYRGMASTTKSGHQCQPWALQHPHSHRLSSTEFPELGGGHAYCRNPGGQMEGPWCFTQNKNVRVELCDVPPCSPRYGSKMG
The assay is described as above.

Assay [6] concerns the target T5, recombinant human ROR2 H349R (human, UniProt Q01974 34-403).
T5 construct: Human residue replaced with the mouse residue
The assay is described as above.

For assay [7], the target named is T6, recombinant human ROR2 D354E (human, UniProt Q01974 34-403). The description is as above.
T6 sequence (Q01974 34-403 D354E limits assumed): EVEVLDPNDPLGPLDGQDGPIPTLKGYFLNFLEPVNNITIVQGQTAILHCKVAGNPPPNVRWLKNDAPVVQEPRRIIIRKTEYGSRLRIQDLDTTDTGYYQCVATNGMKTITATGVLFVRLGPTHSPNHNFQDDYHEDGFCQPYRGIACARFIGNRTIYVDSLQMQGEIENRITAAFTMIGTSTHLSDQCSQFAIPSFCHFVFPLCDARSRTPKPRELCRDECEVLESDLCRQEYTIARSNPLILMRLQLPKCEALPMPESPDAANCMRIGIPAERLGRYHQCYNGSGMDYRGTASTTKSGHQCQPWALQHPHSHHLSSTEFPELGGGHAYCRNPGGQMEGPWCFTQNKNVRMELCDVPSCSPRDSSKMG
For assay [8], the target named is T3, recombinant ROR1. Put plainly: dot blot on nylon membrane, anti-human IgG-HRP.
Assay [9] concerns the target T5, recombinant human ROR2 H349R. Description: dot blot on nylon membrane, anti-human IgG-HRP.
In assay [10] the target is T6, recombinant human ROR2 D354E. Description: dot blot on nylon membrane, anti-human IgG-HRP.

Numbering of substitutions follows the chain as printed. Where two headings read alike, the source gives them in different places.

T2 sequence (Q01974 34-403 limits assumed): as the sequence (Q01974 34-403 D354E limits assumed) above, with E321D counted along it
T5 sequence (Q01974 34-403 H349R limits assumed): as the sequence (Q01974 34-403 D354E limits assumed) above, with H316R, E321D counted along it
T1 sequence (Q01973 30-406): as the sequence (Q01973 30-406 limits assumed) above

B1: h6E6-116 anti-human ROR2 chimeric antigen receptor (other, not shown: small tags and cut ends)
chain: EVQLVESGGGLVKPGGSLRLSCAASGFTFSTYGVSWVRQAPGKGLEWVSTISSGGGYTHYAGSVKGRFTISRDNAKNSLYLQMNSLRAEDTAVYYCARHPRDFSYALDYWGQGTTVTVSSEIVMTQSPATLSVSPGERATLSCRASQDVGHYLAWYQQKPGQAPRLLIYWASTRATGIPARFSGSGSGTEFTLTISSLQSEDFAVYYCQQYNIYPWTFGQGTKVEIK
notes: Expressed on transfected Jurkat cells
For the molecule B1, in assay [1], the binding result was “no binding (tested: 1 ug/ml)”.

B2: h6E6-058 (antibody, human IgG1, V domains shown)
VH: EVQLVESGGGLVKPGGSLRLSCAASGFTFSVYGLSWVRQAPGKGLEWVSTISSGGGYTQYAPSVKGRFTISRDNAKNSLYLQMNSLRAEDTAVYYCARHPRDFSYAFDYWGQGTTVTVSS
VL: EIVMTQSPATLSVSPGERATLSCKASQDVGHYLAWYQQKPGQAPRLLIYWASTRATGIPARFSGSGSGTEFTLTISSLQSEDFAVYYCQQYNIYPWTFGQGTKVEIK
notes: human IgG1; also called clone 58
Take B2: the Kd in assay [2] and in [3] was 187 pM each time. Also, the binding result in assay [4], in assay [5], in [6] and in assay [7] was “no binding” throughout.

B3: h6E6-063 (antibody, human IgG1, V domains shown)
VH: B2 VH with V31A, L34T, Q59Y, P62A, F107I
VL: B2 VL with K24R
notes: human IgG1; also called clone 63
For the molecule B3, the Kd in [2] and in assay [3] was 475 pM in each case. Also, the binding result in [4], in assay [5], in [6] and in [7] was “no binding” each time.

B4: h6E6-070 (antibody, human IgG1, V domains shown)
VH: B2 VH with V31Q, L34H, Q59H, P62H, F107N
VL: B2 VL with K24R
notes: human IgG1; Alexa647 conjugate in flow cytometry; also called clone 70
On to B4, for which the equilibrium dissociation constant (Kd) in [2] and in [3] was 165 pM each time. Moreover, the binding result in assay [8], in [9], in [10] and in assay [5] was “no binding” throughout.

For orientation: Kd means the equilibrium constant for the complex coming apart.

The values are drawn from patent US20260209348A1 (University of California, published 2026).
